B1: M0040-A03: Fab that binds human MMP-14; DNA LV SEQ ID NO: 80, HV SEQ ID NO: 81 (antibody, V domains shown)
VL: QDIQMTQSPSFVSASVGDRVTISCRASHNINTWLAWYQQKPGKAPNLLIYSASNLQGGVPSRFSGSGSGTDFTLTISSLQPGDFATYYCQQASSFPITFGQGTRLEIK
VH: EVQLLESGGGLVQPGGSLRLSCAASGFTFSNYMMIWVRQAPGKGLEWVSWISPSGGYTFYADSVKGRFTISRDNSKNTLYLQMNSLRAEDTAVYYCARGYYDILTGMVGGGAFDIWGQGTTVTVSS
modifications: Synthetically generated oligonucleotide
B2: M0039-B07: Fab that binds human MMP-14; DNA LV SEQ ID NO: 68, HV SEQ ID NO: 69 (antibody, V domains shown)
VL: QDIQMTQSPLSLSASVGDRVTITCRASQGISNYLAWYQQKPGKVPKLLIYAASTLQSGVPSRFSGSGSGTDFTLTISSLQPEDVATYYCQKYNSARLTFGGGTKVEIK
VH: EVQLLESGGGLVQPGGSLRLSCAASGFTFSLYPMLWVRQAPGKGLEWVSGISPSGGQTFYADSVKGRFTISRDNSKNTLYLQMNSLRAEDTAVYYCARMAYYSGYFDLWGRGTLVTVSS
modifications: Synthetically generated oligonucleotide
B3: M0038-H06: Fab that binds human MMP-14; DNA LV SEQ ID NO: 66, HV SEQ ID NO: 67 (antibody, V domains shown)
VL: QDIQMTQSPGTLSLSPGEGATLSCRASQIINPFYVAWYQQRPGQAPRLLIYASSRRAGGIPDRFSGSASGTDFTLTISRLEPEDFAVYYCQYFYNSMWTFGQGAKVEIR
VH: EVQLLESGGGLVQPGGSLRLSCAASGFTFSWYNMTWVRQAPGKGLEWVSRISPSGGDTFYADSVKGRFTISRDNSKNTLYLQMNSLRAEDTAVYYCARAAIAPRPYGMDVWGQGTTVTVSS
modifications: Synthetically generated oligonucleotide
B4: M0039-G07: Fab that binds human MMP-14; DNA LV SEQ ID NO: 76, HV SEQ ID NO: 77 (antibody, V domains shown)
VL: QDIQMTQSPGTLSLSPGERATLSCRASQSVNSRFLAWYQQKPGQAPRLLIYSTSTRATGIPDRFSGSGSGTDFTLTISRLEPEDFAVYYCQRYGSSPTWTFGQGTKVEIK
VH: EVQLLESGGGLVQPGGSLRLSCAASGFTFSRYVMDWVRQAPGKGLEWVSRISPSGGHTDYADSVKGRFTISRDNSKNTLYLQMNSLRAEDTAVYYCARETVRGVYFDYWGQGTLVTVSS
modifications: Synthetically generated oligonucleotide
B5: M0038-E05: Fab that binds human MMP-14; DNA LV SEQ ID NO: 56, HV SEQ ID NO: 57 (antibody, V domains shown)
VL: QDIQMTQSPSSVSASVGDRVTITCRASQHISNWLAWYQQKPGEAPKLLISAASSLQSGVPSRFSGSGSGTDFTLTISSLQPEDFATYYCQQSYSTPLTFGGGTKVEIK
VH: EVQLLESGGGLVQPGGSLRLSCAASGFTFSPYHMTWVRQAPGKGLEWVSSISSSGGHTEYADSVKGRFTISRDNSKNTLYLQMNSLRAEDTAVYYCATAWAGFTFNVWGQGTMVTVSS
modifications: Synthetically generated oligonucleotide
B6: M0039-G05: Fab that binds human MMP-14; DNA LV SEQ ID NO: 74, HV SEQ ID NO: 75 (antibody, V domains shown)
VL: QDIQMTQSPSFLSASIGDRVTITCRASQGINTFLAWYQQKPGIAPKLLIYAASTLQSGVPSRFSGSGSGTEFTLTISSLQPEDFATYYCQQLNGYRSFGQGTRLEMK
VH: EVQLLESGGGLVQPGGSLRLSCAASGFTFSNYEMGWVRQAPGKGLEWVSWIYSSGGYTSYADSVKGRFTISRDNSKNTLYLQMNSLRAEDTATYYCARDPYYYDSSGYYYYYYYYMDVWGKGTTVTVSS
modifications: Synthetically generated oligonucleotide
B7: M0038-E12: Fab that binds human MMP-14; DNA LV SEQ ID NO: 60, HV SEQ ID NO: 61 (antibody, V domains shown)
VL: QDIQMTQSPSSLSASVGDSVTITCRASQNINSYLNWYQQKPGKAPKLLIYVASNLQRGVPSRFGGSGSGTDFTLTITSLQPEDFATYSCQQTYSTPLTFGGGTKVEIK
VH: EVQLLESGGGLVQPGGSLRLSCAASGFTFSKYWMMWVRQAPGKGLEWVSVIYPSGGITYYADSVKGRFTISRDNSKNTLYLQMNSLRAEDTAVYYCARLPSWGFDALDIWGQGTMVTVSS
modifications: Synthetically generated oligonucleotide
B8: M0039-D02: Fab that binds human MMP-14; DNA LV SEQ ID NO: 70, HV SEQ ID NO: 71 (protein)
chain 1: QDIQMTQSPSSLSASVGDRVTITCRASQSISSYLNWYQQKPGKAPKLLIYDASNLETGVPSRFSGSGSGTDFTFTISSLQPEDIATYYCQQFDDLPLTFAGGTKVELKRT
chain 2: EVQLLESGGGLVQPGGSLRLSCAASGFTFSLYVMIWVRQAPGKGLEWVSGIYSSGGDTYYADSVKGRFTISRDNSKNTLYLQMNSLRAEDTAVYYCARGQQLGGGAFDIWGQGTMVTVSS
modifications: Synthetically generated oligonucleotide
B9: M0040-C10: Fab that binds human MMP-14; DNA LV SEQ ID NO: 92, HV SEQ ID NO: 93 (antibody, V domains shown)
VL: QDIQMTQSPATLSASVGDRVTITCRASQTISTYLNWYQHKPGKAPELLIYAASSLQSGVPSRFSGSGSGTDFTLRISSLQPEDFATYYCQQSYTTPWTFGQGTKVEIK
VH: EVQLLESGGGLVQPGGSLRLSCAASGFTFSRYMMVWVRQAPGKGLEWVSSIVSSGGKTWYADSVKGRFTISRDNSKNTLYLQMNSLRAEDTAMYYCARWDWGPFDYWGQGTLVTVSS
modifications: Synthetically generated oligonucleotide
B10: M0040-B06: Fab that binds human MMP-14; DNA LV SEQ ID NO: 88, HV SEQ ID NO: 89 (antibody, V domains shown)
VL: QYELTQPPSASGTPGQRVTISCSGSSSNIGRNYVYWYQQVPGTAPKLLIYSNNQRPSGVPDRFSGSKSGTSASLVISGLRSEDEADYYCAAWDASLRGVFGGGTKLTVL
VH: EVQLLESGGGLVQPGGSLRLSCAASGFTFSVYPMVWVRQAPGKGLEWVSYISPSGGFTFYADSVKGRFTISRDNSKNTLYLQMNSLRAEDTAVYYCARVPGGSRQDFDIWGQGTMVTVSS
modifications: Synthetically generated oligonucleotide
B11: M0030-D08: Fab that binds human MMP-14; DNA LV SEQ ID NO: 8, HV SEQ ID NO: 9 (antibody, V domains shown)
VH: EVQLLESGGGLVQPGGSLRLSCAASGFTFSIYQMYWVRQAPGKGLEWVSSIVPSGGLTKYADSVKGRFTISRDNSKNTLYLQMNSLRAEDTAVYYCARERLRYFDWSDRVGESGDYWGQGTLVTVSS
VL: QDIQMTQSPSSLSASVGDRVTMTCRAGQNIKSYLNWYQQKPGKAPQVLIYAASTLQSGVSSRFRGSGSGTHFTLTISDLQPGDSATYYCQQSFSTPRSFGQGTSWRS
B12: M0039-D10: Fab that binds human MMP-14; DNA LV SEQ ID NO: 72, HV SEQ ID NO: 73 (antibody, V domains shown)
VL: QDIQMTQSPDTVSFSPGERASLSCRASQSVRSDLAWYQQKPGQAPRLLIYGASNRATGIPVRFSGSGSGTDFTLTISRLEPEDFAVYYCQQYGSSPLFTFGPGTKVDIK
VH: EVQLLESGGGLVQPGGSLRLSCAASGFTFSMYNMAWVRQAPGKGLEWVSWIYSSGGLTLYADSVKGRFTISRDNSKNTLYLQMNSLRAEDTAVYYCAKGSNTYYFDASGLGAFNMWGQGTMVTVSS
modifications: Synthetically generated oligonucleotide

Target: MMP-14 (Homo sapiens, UniProt P50281)
Assay: Selection and phage ELISA screening of anti-MMP-14 Fabs
Format: binding
Settings: Fab from FAB310 phage display library
Procedure: Strategy I: A 100-fold excess of the FAB310 library (e.g., an amount of the library that should contain 100 copies of each library member) was depleted of streptavidin-binding antibodies by incubating the library with 200 μL of streptavidin beads for 1 hour at room temperature (RT) with rotation. 500 nM of biotinylated MMP-14 was coupled to streptavidin beads by incubation with 100 μL of streptavidin beads. The MMP-14 beads were then incubated with the streptavidin-depleted library for 1 hour at RT with rotation. The beads were then rinsed three times with 2% MTRIS/0.1% Tween, transferred to a fresh tube and washed an additional three times with 2% MTRIS/0.1% Tween, and transferred to a fresh tube and washed a final time with Round 1 TRIS buffer (50 mM TRIS; 50 mM CaCl2; 150 mM NaCl, pH 7.5).
MMP-14 binding antibodies were eluted from the beads by re-suspension in 1 mL 2% MTRIS containing 2.5 μM TIMP-2 and incubation for 1 hour at RT with rotation. The beads were then washed three times with 2% MTRIS/0.1% Tween, transferred to a fresh tube and washed three times with TRIS/0.1% Tween, and transferred to a fresh tube and washed a final time with TRIS. 1 mL output was used for infection of 9 mL TG1 bacteria (grown to OD600=0.5). The beads were further eluted by suspension in 1 mL 100 mM TEA for 10 minutes. The supernatant was neutralized with 500 μl TRIS/HCl pH 7.5. 1 mL of the second elution was used for infection of 9 mL TG1 bacteria (grown to OD600=0.5).
Two additional rounds of selection were carried out under the same conditions as the first round, except that the streptavidin beads were loaded with 100 nM biotinylated MMP-14 and the number of washes were doubled (6 times with 2% MTRIS/0.1% Tween, 6 times with TRIS/0.1% Tween and 2 times with TRIS), and Round 2/3 Tris buffer (50 mM TRIS; 5 mM CaCl2; 150 mM NaCl pH=7.5) was used for incubation and wash.
TIMP-2 was coupled to carboxylic beads, then complexed with a combination of biotinylated MMP-14 (500 nM each). The complexed beads were incubated with a 100 fold excess of FAB310 library that had been previously depleted by incubation with streptavidin beads and carboxylic beads. Elution/washing was carried out as for Strategy I.
Two additional rounds of selection were carried out, essentially as described for Strategy I, except that only 100 nM of each of MMP-14 were used in the bead complexes.
384-well plates were coated with biotinylated BSA (2 μg/ml in 50 mM TRIS; 5 mM CaCl2; 150 mM NaCl, pH 7.5), then washed 3 times with 50 mM TRIS; 5 mM CaCl2; 150 mM NaCl, pH 7.5; 0.1% Tween. Streptavidin was captured on the coated plates by incubation with 10 μg/mL streptavidin in 50 mM TRIS; 5 mM CaCl2; 150 mM NaCl pH 7.5; 0.5% Gelatin, followed by a wash with 50 mM TRIS; 5 mM CaCl2; 150 mM NaCl pH=7.5; 0.1% Tween. On the day the assay was to be performed, biotinylated MMP-14 (1 μg/ml) was captured in 50 mM TRIS; 5 mM CaCl2; 150 mM NaCl, pH 7.5.
95 clones were picked from each of Round 2 and Round 3 of each selection strategy, producing 12 masterplates. ELISA was run on the MiniTrak-5 deck according to SOP.

Bind to human MMP-14, bind to human MMP-14:
B1, B2, B3, B4, B5, B6, B7, B8, B9, B10, B11, B12
